Laboratory results as given in the nanobody polyreactivity screen of Harvey et al. (2022).

Experiment: yeast display, Sf9 membrane polyspecificity reagent, FACS + sequencing; frameworks hold sequencing errors
Outline: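 After 36–48 hours of galactose induction, yeast (Saccharomyces cerevisiae BJ5465) displaying a synthetic nanobody library were stained at 4 °C for 1 hour with 10% biotinylated, detergent-solubilized Sf9 membrane reagent. Streptavidin microbeads enriched the stained cells before FACS sorting into low and high (top ~1%) gates on anti-HA and streptavidin fluorescence. Each clone's polyreactivity label reflects its gate of origin.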

| Sequence | polyreactivity (PSR sort gate) |
| --- | --- |
| QVQLVESGGGLVQAGGSLRLSCAASGSIFPYYAMGWYRQAPGKERELVADITSSVGSTYYADSVKGRFTISRDNAKNTVYLQMNSLKPEDTAVYYCAALYWFYVYPFTEYDYWGQGTQVTVSS | low polyreactivity |
| QVQLVESGGGLVQAGGSLRLSCAASVITFGANTMGWDIQAPGKERELVATLTSSGGSTYYADSVKGRFTISRDNAKNTVYLQMNSLKPEDTAVYYCAASDLRDRGNYVYLPSEYWGLGTQVTVSS | low polyreactivity |
| QVQLVESGGGLVQAGGSLRLSCAASGSTISYNAMGWYRQAPGKERELVAAIRTSGGRTYYADSVKGRFTISRDNAKNTVYLQMNSLKPEDTAVYYCAKRWVYRYGYEYWGQGTQVTVSS | high polyreactivity |
| QVQLVESGGGLVQAGGSLRLSCAASGFIFGGYAMGWYRQAPGNERDLVAAITSSGGDTYYADSVKGRFTISRDNAKNTVYLQMNSLKPEDTAVYYCAKRARRIGDVNMGSWGQGTQVTVSS | low polyreactivity |
| QVQLVESGGGLVQAGGSLRLSCAASGRIFDVYAMGWYRQAPGKERELVATITCSGGGTYYADSVKGRFTISRDNAKNSVYLQMNSLKPEDTAVYYCAADYYPTYAYYVSNVGYDYWGQGTQVTVSS | low polyreactivity |
| QVQLVESGGRLVQAGGSLRLSCAASGRTFHRYAMGWYRQAPGKERELVAAITSSGGSTNYADSVKGRFTISRDNAKNTVYLQMNSLKPEDTAVYYCATVRYRYTSHPWSRGFDYWGQGTQVTVSS | low polyreactivity |
| QVQLVESGGGLVQAGGSLRLSCAASGIIFKNYAMGWYRQAPGKERELVAAISKRGASTYYADSVKGRFTISRDNAKNTVYLQMNSLKPEDTAVYYCAAYRQGSAYDYWGQGTQVTVSS | high polyreactivity |
| QVQLVESGGGLDQAGGSLRLSCAASGLIFGNYANRGYTQAPGKERELVAALSSGGSTHYADSVKGRFTISRDNAKNTVYLQMHSLNPEDTAVYYCAAGYRYAGNGQIANTGGYYWGQGTQVTVSW | low polyreactivity |
| QVQLVESGGGLVQAGGSLRLSCAASGNTFSNYAMGWYRQAPGKERELVAAISRSGGRTYYADSVKGRFTISRDNAKNSVYLKMNSLKPEDTAVYDCIATSNGESYYWGQGTQVTVSS | high polyreactivity |
| QVQLVESGGGLVQAGGSLRLSCAASGRIFGYYVMGWYRQAPGKERELVAAINYDGGSTYYADSVKGRFTISRDNAKNTVYLQMNSLKPEDTAVYYCAAAIGNSEYGWRYDYWGQGTQVTVSS | low polyreactivity |
| QVQLVESGGGLVQAGGSLRLSCAASGRTFSSNAMGWYRQAPGKERELVATITYSGGSTYYADSVKGRFTISRDNAKNTVYLQMNSLKPEDTAVYYCAVRVSTYITKYYYWGQGTQVTVSS | low polyreactivity |
| QVQLEESGGGLVQAGGSLRLTCAASGRTFYNNAMGWYRQAPGKERQLVATISKSGGSTNYADSVKGRFTISRDNAKNTVYLQMNSLKPEDNAVYYCAADTSGGSWGRGRWKYGYWGQGTQVTVSS | high polyreactivity |
| QVQLQESGGGLVQEGGSLRLSCSASGNISPPADMGWSRQAPGKERELVASIGTGGTTNYADSVKGRFTISRDNAKNTVYLQMNSLKPDDTAVYYCAAGRYEYNPYDYWGQGTQVTVSS | low polyreactivity |
| QVQLVESGGGLVQAGGSLRLSCPASGSIFPYYAMGCYRQAPGKERELVAAISSGDITDYADSVKGRFTISRDNAKNTVYLQMNSLKPEDTAVYYCAAATLSLYWPYLFRGSDYDYWGQGSQVTVSS | low polyreactivity |
| QVQLVESGGGLVQAGGSLRLSCAASGGTFYRYAMGWYRQAPGKERELVAVISKRGGTTYYADSVKGRFTISRDNAKNTVYLQMNSLKPVDTAVYYCAVRAPQSYGYDYWGQGTQVTVSS | high polyreactivity |
| QVQLVESGGGLVQAGGSLRLSCAASGSIFNLYTMGWYRQAPGKERELVAVITGGGSTYYADSVKGRFTISRDNAKNTVYLQMNSLKPDDTAVYYCAAKGPYYKSSRTGDYWGQGTQVTVSS | low polyreactivity |
| QVQLVESGGGLVQAGGSLRLSCAASGRIFLYYAMGWYRQAPGKERELVATISSGGSTHYADSVKGRFTISRDNAKNTVYLQMNSMKPEDTAVYYCAAYGYGRGLEPSTTEMDYWGQGTQVTVSS | low polyreactivity |
| QVQLVESGGALVQAGGSLRLSCAASGGTFFSNAMGWYRQAPGKERELVAAISNDDGDTYYADSVKGRFTISRDNAKNTVYLQMNSLKPEDTAVYYCAVDYSYLHRTTFEYWGQGTQVTVSS | low polyreactivity |
| QVQLVESGGGLVQAGGSLRLSCAASGITFPANAMGWYRQSPGKERELVADISESDGSTYYADSVKGRFTISRDNAKHTVYLQMNRLKPEDTAVYYRAADGTYGTRSDYWGQGTQVTVSS | low polyreactivity |
| QVQLVESGGGLVQAGGSLRLSCAAYGFTFWRNAMGWYIQAPGKERELVAAISASGGSTYYASSVKGRFTISRDNAKNTVYLQMNSLKPEDTAVYYCNAGEWAISEWGWVVDYDYWGQGTQVTVSS | low polyreactivity |
| QVQHVESGGGLVQAGGSLRLSCAASGFTYRRYAMGWYRQSPGKERELVAAISYRGGTYYADSVKGRFTISRDKAKNTLYLQMTSLIPEDTAVYYCNARYRGKYSSYGYWGQGTQVTVSS | high polyreactivity |
| QVQLVESGGGLVQAGGSLRLSCAASGSTFPTYAMGWYRQAPGKESELVAAISFSGARTYYADSVKGRFTISRDNAKNTVYLQMNSLKPEDTAVYYCAKDSSYSRRYEYWGQGTQVTVSS | high polyreactivity |

| Sequence | polyreactivity (PSR sort gate) |
| --- | --- |
| QVQLVESGGGLVQAGGSLRLTCAASGSTFGWYAMGWYRQAPGKGRGVVAAITGDSASTYYADSVKGRFTISRDNAKNTVYLQTNSLKPEDTAVYYCAATKFSAFGSPPLIGYGYWGQGTQVTVSS | low polyreactivity |
| QVQLVESGGGLVQAGGSLRLSCAASGITFTAYDMGWYRQAPWKEREFVAAISTIGGSTNYADSVKGRFTISRDNAKNTVYLQMNSLKPEDTAVYYCFAWVYQFGYWGQGTQVTVSS | low polyreactivity |
| QVQLVESGGGLVQAGGSLRLSCAASGSTFPYYDMGWYRQAPGKERELVAAISWSGDSTYYADSVKGRFTISRDNAKNTVYLQMKSLKAEDTAVYYCNADGKAGGDYDYWGQGTQVTVSS | low polyreactivity |
| QVHLVESGGGIVQAGGSLRLSCAASGRTFGVNAMGWYRQAPGQEMELVAAISYSGASTFYADSLKGRFTISRDKAKNNVYLQMNSLKPEDTAVYYCAKRVVRYGKRMGYWGQGTQVTVSS | high polyreactivity |
| QVQLVESCGGLVQAGGSLRLSCAASGRIFPYNAMGWYRQAPGKERELVAAIDWRDNTYYADSVKGRFTISRDNAKNTVYLQMNSLKPEDTAVYYCNVDYTDYFLNKYDYWGQGTQVTVSS | low polyreactivity |
| QVQLVESGGGLVQAGGSLRLSCAASGRTFSYYAMGWYRQAPGKERELVASISYSAGRTYYADSVKGRFTISRDNAKNTVYLQMNSLKPEDTAVYYCAVRGVRRFPVRTGSYTRYGDYYWGQGTQVTVSS | high polyreactivity |
| QGQLVDSGGGVVQAGGSLRLSCAASGRTFPVYAMGWYRQAPGKERELVAAISSRGGSTYYADSVKGRFTISRDNAKNTVYLQMNSLKPEDTAVYYCAARMPGPRRFTMDYWGQGTQVTVSS | high polyreactivity |
| QVQLVESGGGLVQAGGSLRLSCAASGYTFAGYAMGWYRQAPGKERELVAAISQSGGRTYYADSVKGRFTISRDNAKNTVYLQMNSLKPEDTAVYYCNARAYYAGTYYVSRYYYWGQGTQVTVSS | high polyreactivity |
| QVQLVESGGGLVQAGGSLRLSCAASGRIFHYNTMGWYRQAPGKERELVAAITSSGGSTYYADSVKGRFTISRDNAKNTVYLQMNSLKPEDTAVYYCNAVFYRYGYKVDYWGQGTQVTVSS | high polyreactivity |
| QVQLVESGGGLVQAGGSLRLSCAASGSTFGWYGMGWYRQAPGKERELVASIRWSGGITYYADSVKGRFTISRDNAKNTVYLQMNSLKPEDTAVYSCAARTYRYFGRYDYWGQGTQVTVSS | high polyreactivity |
| QDQLVESGGGLVQARGRQRLSCAATGSTFYRNALGWYRQAPGKEREFVAAISFRGGGTYADSVKGRFTISRDNAKNTVYLQMNSLKPEDTAVYYFGADHLSYRRRYEYWGQGTQVTVSS | low polyreactivity |
| QVQLVESGGGLVQAGGSLRLSCAASGSTFVRYAMGWYRQAPGKERELVASISSSGSTYYADSVKGRFTISRDNAKNTVYLQMNSLKPEDTAVYYCAKQYGGRYGYWGQGTQVTLSS | low polyreactivity |
| QVQLVESGGGLVQAGGSLRLSCAASGRIFYGNAMGWYRQAPGKERELVARISSGSSTNYADSVKGRFTISRDNAKNTVYLQMNSLKPEDTAVYYCAARYTARRQSYGYWGQGTQVTVSS | high polyreactivity |
| QVQIVDSGGGLVQAGGRLRLSCAPSGITFVYYAMGWYRQAPGKEREFVASITSNGVSTYYADSVKGRYTISRDNAMNTVYLQMNSLKPEDTAVYYCAADGTYRNYWYDYWGQGTQVTVSS | low polyreactivity |
| QVQLVESGGGLVQAGGSLRLSCAASGITSSRYAMGLYRQAPGKVRELVAAISSSGGSTYYADSVKGRFTSSRDNAKTTVYLQLISLKPEDTAVYYCNVVSTRLAKYTFGFWGQGTQVTVSS | high polyreactivity |
| QVQIVESWGGLVQAGGSLRLSCAASGSTIYTYPMGWYRQAPGKERELFAAISYRGGSTYYADSVKVRYSISRDNAKNTVYLQMKSLKPEDTAVYYCNVDGVVVGTKRGGYDYWGQGTQVTVSS | low polyreactivity |
| QVQLVESGGGLVQAGGSLRLSCAASGSIFVQYAMGWYRQAPGNERELVAAISNRGGSTYYADSVKGRFTISRDNAKNTVYLQMNSLKPEDTAVYYCAARKYWGYGTRYYYWGQGTQVTVSS | high polyreactivity |
| QVQLVESGGGLVQAGGSLRLSCAASGFTFGGNAMGWYRQAPGKERELVASITSGGSTNYADSVKGRFTISRDNAKNTVYLQMNSLKPEDTAVYYCAAARTGRARRHFDYWGQGTQVTVSS | low polyreactivity |
| QVQLVESGGGLVQAGGSLRLSCAASGRIFVYYTMGWYRPAPGKERELVAAIRSSGGSTYADSVKGRFTISRDNAKNTVSLQMNSLKPEDTAVYYCNAGYRSWQYRSGLYGDYNYWGQGTQVTVSS | high polyreactivity |
| QVQLVESGGGLVQAGGSLRLSCAASGYIFKSNVMGWYRQAPGKERELVAAISWSGGRTYYADSVKGRFTISRDNAKNTDYLQMNSLKPEDTAVYYCAAVGRQSNYYVDYDYWGQGTQVTVSS | high polyreactivity |
| QVQLVESGGGLVQAGGSLRLSCAASGFTFIPYAMGWYRQAPGKERELVAAISRKGGRTYYADSVKGRFTISRDNAKNTVYLQMNSLKPEDTAVYYCAVSQYRGIYRKYDYWGQGTQVTVSS | high polyreactivity |
